This is an account of results in patent publication US20190359687A1 (Bayer, published 2019).

The target in experiment [1] is T1, human glycophorin A on human red blood cells (human, UniProt P02724 20-150).
T1 construct: whole, on cells; also called human GPA; huGPA
T1 sequence (looked up): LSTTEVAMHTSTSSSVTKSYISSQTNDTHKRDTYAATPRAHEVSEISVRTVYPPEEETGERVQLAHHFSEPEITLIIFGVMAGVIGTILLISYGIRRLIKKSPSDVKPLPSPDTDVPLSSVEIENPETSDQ
Description: partition to human RBC, vWF deficient plasma, 1 min.

The target of experiment [2] is T2, Cynomolgus monkey glycophorin A on Cynomolgus monkey red blood cells (Cynomolgus monkey).
T2 construct: whole, on cells; also called Cyno GPA; Cyno RBC
The experiment can be described thus: partition to Cyno RBC, human HemA plasma, 120 min.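 Also: FVIII fusion spiked at 1 IU/mL into RBC suspension at whole-blood density.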
Description: (§1) To evaluate partition to cynomolgus monkey or human red blood cells, whole blood was draw from Cynomolgus monkey or normal human volunteers in to anticoagulant with 4% sodium citrate (Sigma, St Louis, Mo.). The red blood cells were purified by layering the whole blood on to ficoll followed by low speed centrifugation. The supernatant containing plasma, platelets and white blood cells was discarded and the red blood cell pellet was resuspended in 10 pellet volumes of PBS (50 mM Phosphate buffer, pH7.4, 150 mM NaCl). The red blood cells were then pelleted by slow speed centrifugation and the red blood cells re-suspended in 10 volumes of PBS. This washing step was repeated 4 more times and the red blood cells finally resuspended in a volume of plasma from Hemophilia patients with less than 1% of normal levels of FVIII (GeorgeKing Bio-Medical, Overland Park, Kans.) to generate a total volume equal to the initial blood volume such that the RBC density was equal to that of normal whole blood. BDD and RBC targeted FVIII molecules were then spiked into RBC suspension in HemA plasma at 1 IU/mL, and incubated at room temperature for 2-3 hours with gentle rotation. […] An additional control was performed in which BDD or RBC targeted FVIII molecules were added at 11U/ml into the same human hemophilia A plasma and incubated for 5 minutes and 180 mins. These samples were used to determine the input FVIII activity in the presence of plasma which was used to calculate the percentage of the molecule that was bound to RBC. All plasma samples were then assayed together for FVIII activity using the Coatest SP assay (DiaPharma, Columbus, Ohio). The assay was performed following the manufacturer's instructions in a 96-well plate format. […] The plate was incubated at 37° C. for 10 minutes with shaking between each reagent addition.

For experiment [3], the target named is T1, human glycophorin A on human red blood …. Description: partition to human RBC, vWF deficient plasma, 120 min.
For experiment [4] the target is unchanged. Description: partition to human RBC, vWF deficient plasma, 5 min.
Experiment [5] deals with T2, Cynomolgus monkey glycophorin A on …. Description: partition to Cyno RBC, human HemA plasma, 30 min.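 Also: FVIII fusion spiked at 1 IU/mL into RBC suspension at whole-blood density.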
Experiment [6] concerns the target T1, human glycophorin A on human red blood …. The experiment can be described thus: partition to human RBC, vWF deficient plasma, 15 min.
The target in experiment [7] is T2, Cynomolgus monkey glycophorin A on …. Description: partition to Cyno RBC, human HemA plasma, 60 min.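 Also: FVIII fusion spiked at 1 IU/mL into RBC suspension at whole-blood density.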
Experiment [8] concerns the target T1, human glycophorin A on human red blood …. Description: partition to human RBC, vWF deficient plasma, 60 min.
The target in experiment [9] is T2, Cynomolgus monkey glycophorin A on …. Description: partition to Cyno RBC, human HemA plasma, 15 min.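 Also: FVIII fusion spiked at 1 IU/mL into RBC suspension at whole-blood density.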
Description: as §1
Experiment [10] concerns the target T1, human glycophorin A on human red blood …. The experiment can be described thus: partition to human RBC, vWF deficient plasma, 30 min.
In experiment [11] the target is T2, Cynomolgus monkey glycophorin A on …. Description: partition to Cyno RBC, human HemA plasma, 1 min.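 Also: FVIII fusion spiked at 1 IU/mL into RBC suspension at whole-blood density.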
For experiment [12] the target is unchanged. Description: partition to Cyno RBC, human HemA plasma, 5 min.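 Also: FVIII fusion spiked at 1 IU/mL into RBC suspension at whole-blood density.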
For experiment [13], the target named is T3, glycophorin A peptide GP5 (human, biotin at the N-terminus).
T3 construct: Residues 42 to 61 of the human glycophorin A extracellular domain
T3 peptide: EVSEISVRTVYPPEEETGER
The experiment can be described thus: Octet, GP5 peptide on the probe, fusion protein in solution, 1:1 fit.

B1: TPP-9711 FVIII-scFv fusion protein (other)
chain: ATRRYYLGAVELSWDYMQSDLGELPVDARFPPRVPKSFPFNTSVVYKKTLFVEFTDHLFNIAKPRPPWMGLLGPTIQAEVYDTVVITLKNMASHPVSLHAVGVSYWKASEGAEYDDQTSQREKEDDKVFPGGSHTYVWQVLKENGPMASDPLCLTYSYLSHVDLVKDLNSGLIGALLVCREGSLAKEKTQTLHKFILLFAVFDEGKSWHSETKNSLMQDRDAASARAWPKMHTVNGYVNRSLPGLIGCHRKSVYWHVIGMGTTPEVHSIFLEGHTFLVRNHRQASLEISPITFLTAQTLLMDLGQFLLFCHISSHQHDGMEAYVKVDSCPEEPQLRMKNNEEAEDYDDDLTDSEMDVVRFDDDNSPSFIQIRSVAKKHPKTWVHYIAAEEEDWDYAPLVLAPDDRSYKSQYLNNGPQRIGRKYKKVRFMAYTDETFKTREAIQHESGILGPLLYGEVGDTLLIIFKNQASRPYNIYPHGITDVRPLYSRRLPKGVKHLKDFPILPGEIFKYKWTVTVEDGPTKSDPRCLTRYYSSFVNMERDLASGLIGPLLICYKESVDQRGNQIMSDKRNVILFSVFDENRSWYLTENIQRFLPNPAGVQLEDPEFQASNIMHSINGYVFDSLQLSVCLHEVAYWYILSIGAQTDFLSVFFSGYTFKHKMVYEDTLTLFPFSGETVFMSMENPGLWILGCHNSDFRNRGMTALLKVSSCDKNTGDYYEDSYEDISAYLLSKNNAIEPRSFSQNGGGGSTGGTGGSSGGGTGSGGGGTGGSGGTDIQLTQSPSFLSASVGDRVTITCRASSSVRYIYWFQQKPGKAPKLLIYATSFRQSGVPSRFSGSGSGTEYTLTISSLQPEDFATYYCHQRNSFPYTFGQGTKLEIKGGGGSGGGGSGGGGSGGGGSEVQLVQSGAEVKKPGASVKVSCKASGYTFTTYAIHWVRQAPGQGLEWMGYINPSSGYTRYNPKFKGRVTMTRDKSTSTAYMELRSLRSDDTAVYYCWTGTRDYWGQGTTVTVSSGGGGDENQSPRSFQKKTRHYFIAAVERLWDYGMSSSPHVLRNRAQSGSVPQFKKVVFQEFTDGSFTQPLYRGELNEHLGLLGPYIRAEVEDNIMVTFRNQASRPYSFYSSLISYEEDQRQGAEPRKNFVKPNETKTYFWKVQHHMAPTKDEFDCKAWAYFSDVDLEKDVHSGLIGPLLVCHTNTLNPAHGRQVTVQEFALFFTIFDETKSWYFTENMERNCRAPCNIQMEDPTFKENYRFHAINGYIMDTLPGLVMAQDQRIRWYLLSMGSNENIHSIHFSGHVFTVRKKEEYKMALYNLYPGVFETVEMLPSKAGIWRVECLIGEHLHAGMSTLFLVYSNKCQTPLGMASGHIRDFQITASGQYGQWAPKLARLHYSGSINAWSTKEPFSWIKVDLLAPMIIHGIKTQGARQKFSSLYISQFIIMYSLDGKKWQTYRGNSTGTLMVFFGNVDSSGIKHNIFNPPIIARYIRLHPTHYSIRSTLRMELMGCDLNSCSMPLGMESKAISDAQITASSYFTNMFATWSPSKARLHLQGRSNAWRPQVNNPKEWLQVDFQKTMKVTGVTTQGVKSLLTSMYVKEFLISSSQDGHQWTLFFQNGKVKVFQGNQDSFTPVVNSLDPPLLTRYLRIHPQSWVHQIALRMEVLGCEAQDLY
notes: The entry is the mature protein; also called PPB 7816
In the case of B1, the “percentage bound to human RBC” value is 76.2% in [1]; 86.3% in experiment [3]; 85.3% in [4]; 87% in experiment [6]; 88.7% in [8]; 87% in experiment [10]. Further, the “% bound to Cyno RBC” value in experiment [2] was found to be 81.8%; in [5] it was 74.2%; in [7] it was 80.2%; in [9] it was 72.1%; in [11] it was 40.6%; in experiment [12] it was 63%.

B2: TPP-8798 FVIII-scFv fusion protein (other)
chain: DIQLTQSPSFLSASVGDRVTITCRASSSVRYIYWFQQKPGKAPKLLIYATSFRQSGVPSRFSGSGSGTEYTLTISSLQPEDFATYYCHQRNSFPYTFGQGTKLEIKGGGGSGGGGSGGGGSGGGGSEVQLVQSGAEVKKPGASVKVSCKASGYTFTTYAIHWVRQAPGQGLEWMGYINPSSGYTRYNPKFKGRVTMTRDKSTSTAYMELRSLRSDDTAVYYCWTGTRDYWGQGTTVTVSSGGGSGGGGSGLVPRGSGGGSGGGGSGATRRYYLGAVELSWDYMQSDLGELPVDARFPPRVPKSFPFNTSVVYKKTLFVEFTDHLFNIAKPRPPWMGLLGPTIQAEVYDTVVITLKNMASHPVSLHAVGVSYWKASEGAEYDDQTSQREKEDDKVFPGGSHTYVWQVLKENGPMASDPLCLTYSYLSHVDLVKDLNSGLIGALLVCREGSLAKEKTQTLHKFILLFAVFDEGKSWHSETKNSLMQDRDAASARAWPKMHTVNGYVNRSLPGLIGCHRKSVYWHVIGMGTTPEVHSIFLEGHTFLVRNHRQASLEISPITFLTAQTLLMDLGQFLLFCHISSHQHDGMEAYVKVDSCPEEPQLRMKNNEEAEDYDDDLTDSEMDVVRFDDDNSPSFIQIRSVAKKHPKTWVHYIAAEEEDWDYAPLVLAPDDRSYKSQYLNNGPQRIGRKYKKVRFMAYTDETFKTREAIQHESGILGPLLYGEVGDTLLIIFKNQASRPYNIYPHGITDVRPLYSRRLPKGVKHLKDFPILPGEIFKYKWTVTVEDGPTKSDPRCLTRYYSSFVNMERDLASGLIGPLLICYKESVDQRGNQIMSDKRNVILFSVFDENRSWYLTENIQRFLPNPAGVQLEDPEFQASNIMHSINGYVFDSLQLSVCLHEVAYWYILSIGAQTDFLSVFFSGYTFKHKMVYEDTLTLFPFSGETVFMSMENPGLWILGCHNSDFRNRGMTALLKVSSCDKNTGDYYEDSYEDISAYLLSKNNAIEPRSFSQNPPVLKRHQREITRTTLQSDQEEIDYDDTISVEMKKEDFDIYDEDENQSPRSFQKKTRHYFIAAVERLWDYGMSSSPHVLRNRAQSGSVPQFKKVVFQEFTDGSFTQPLYRGELNEHLGLLGPYIRAEVEDNIMVTFRNQASRPYSFYSSLISYEEDQRQGAEPRKNFVKPNETKTYFWKVQHHMAPTKDEFDCKAWAYFSDVDLEKDVHSGLIGPLLVCHTNTLNPAHGRQVTVQEFALFFTIFDETKSWYFTENMERNCRAPCNIQMEDPTFKENYRFHAINGYIMDTLPGLVMAQDQRIRWYLLSMGSNENIHSIHFSGHVFTVRKKEEYKMALYNLYPGVFETVEMLPSKAGIWRVECLIGEHLHAGMSTLFLVYSNKCQTPLGMASGHIRDFQITASGQYGQWAPKLARLHYSGSINAWSTKEPFSWIKVDLLAPMIIHGIKTQGARQKFSSLYISQFIIMYSLDGKKWQTYRGNSTGTLMVFFGNVDSSGIKHNIFNPPIIARYIRLHPTHYSIRSTLRMELMGCDLNSCSMPLGMESKAISDAQITASSYFTNMFATWSPSKARLHLQGRSNAWRPQVNNPKEWLQVDFQKTMKVTGVTTQGVKSLLTSMYVKEFLISSSQDGHQWTLFFQNGKVKVFQGNQDSFTPVVNSLDPPLLTRYLRIHPQSWVHQIALRMEVLGCEAQDLY
notes: The entry is the mature protein; mostly a 2 chain molecule; also called BDD-N scFv; PPB 6705
With B2, the “percentage bound to human RBC” value came out at 76.5% in experiment [1]; 95.7% in experiment [3]; 92.5% in experiment [4]; 95.2% in [6]; 95.8% in [8]; 95.7% in experiment [10]. The “% bound to Cyno RBC” value in [2] is 2.9%; in [5], -8.7%; in experiment [7], -19.1%; in experiment [9] it was -7.8%; in [11], 0%; in [12], -21.9%. The molecule also yielded a dissociation constant (Kd) in experiment [13] of 4 nM. The same molecule showed a koff in [13] of 0.00329 s⁻¹. In experiment [13], this molecule displayed an association rate constant (kon) of 823000 M⁻¹ s⁻¹.
